From the nanobody polyreactivity screen of Harvey et al. (2022) come the findings set out here.

The data set in a line: yeast display, Sf9 membrane polyspecificity reagent, FACS + sequencing; frameworks hold sequencing errors. In a few lines:
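In a synthetic yeast display library (Saccharomyces cerevisiae BJ5465), nanobody expression was induced with galactose for 36–48 hours. FACS gates were set low and high (top ~1%) using anti-HA fluorescence for expression and streptavidin fluorescence for binding of the Sf9 membrane reagent. Each polyreactivity label is drawn from the gate of origin.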
Turning to “QDQLVESGGGLVQAGASLRLSCAASGFTFHNKFKGWYRQAPGKERELVATISKSGGSTYYADSVKGRFTISRDYAKNTVNLQMNSLKPEDTAVYYCARRYRDYGRYGYWGQGTQVTVSS”, the “polyreactivity (PSR sort gate)” value is “high polyreactivity”.

As to “QVQLVESGGGLVQAGGSLRVSCAASGIIFGSYPMGWYRQAPGTERELVATISFSGGTTNYADSVKGRFPISRDNATTPVYLQMNSLTPEDTAVYYCAARPAPATGKLDYWGQGTQETVSS”, the “polyreactivity (PSR sort gate)” value was “low polyreactivity”.

Consider “QVQIVESRGGIVQAGGSLRLRCAASGSTFAGNAMGWYRQPPGKERELVAAITSSGGTTYYADSVKGRFTISRDNEKNTVYLQMNSLKPEDSAVYYCAAKSRRTRRSYYWGQGTQVNVSS”, for which the “polyreactivity (PSR sort gate)” value is on record as “high polyreactivity”.

As for “QVQLVESGGGLVQAGGSLRLSCAASGRTFGVYAMGWYRQATGKERELVAGIRWRGGSTYYADSVKGRFTISRDNAKNTVYLQMNSLKPEDTAVYYCAAKVYYLYDSIWAWVIIRYDYWGQGTQVTVSS”, the “polyreactivity (PSR sort gate)” value is “low polyreactivity”.

As to “QVQLVESGGGLVQAGGSLRLSCAASGFIFASYAMGWYRQATGKERELVAAITQSGGITYYADSVKGRFTISRDNAKNTVYLQMNSLKPEDTAVYYCNTPLMKRTTRGRERNYWGQGTQVTVSS”, the “polyreactivity (PSR sort gate)” value was “low polyreactivity”.

For “QVQLVESGGGLVQAGGSLRLSCAASGRLFSYNAMGWYSQAPGKERELVAGITYGSTYYADSVKGRFRISRDNAKNTVYLQMNSLKPEDTAVYYSAADQSYTSVHGYRSDTLMDYWGQGTQGTVSS”, the “polyreactivity (PSR sort gate)” value is listed as “low polyreactivity”.

Consider “QVQLVESGGGLVQAGGSLRLSCPASGNIFLSYAMGWYRQAPGKERELVAGISASGGRTYYADSVKGRFTISRDNAKNTVYLQMNSLKPEDTAVYYCATRGQTRTTTRYYSWGQGTQVTVSS”, for which the “polyreactivity (PSR sort gate)” value is given as “high polyreactivity”.

“QVQLVESGGGLVQAGGSLRLSCAASGSILGQYTMGWYRQAPGKERELVAGISSGGSTNYADSVKGRFTISRDNAKNTVYLQMNSLKPEDTAVYYCNKDGAFHWVGSDPVYLFEYWGQGTQVTVSS”: the “polyreactivity (PSR sort gate)” value is reported as “low polyreactivity”.

Consider “QVQLVESGGGLVQAGGSLRLSCAASGSIFGGNAMGWYRQAPGKERELVATIDFSGTSTYYADSVKGRFTISRDHAKKTVYLQMHSLKPEDTSVSSCNARSYPDYIYWSQRYDYDFWGQGTQVTVSS”, for which the “polyreactivity (PSR sort gate)” value was “low polyreactivity”.

Turning to “QVQLVESGGGLVQAGGSLRLSCAASGSIFIGYGMGWYRQAPGKERELVAAITSGSITNYADSVKGRFTISRDNAKNTVYLQMNSLKPEDTAVYNCNADVNFIDDDYWGQGTQVTVSA”, the “polyreactivity (PSR sort gate)” value is reported as “low polyreactivity”.

Turning to “QVQLVESGGGLVQAGGSLRLSCAASGIIFRVYAMGWYRQAPGKERELFATITWSGGSTFYADSLKGRFTISRDNAKNTVYLQLNSLKPEDTAVYYCAKRGYVRSGLGRPYADDYWGQCTQVTVSS”, the “polyreactivity (PSR sort gate)” value is given as “low polyreactivity”.

With “QVHLVDTGGGLVKAGGSLRLSSAASGSTFEYYSMGWYRQEPGKERQLVPSISSGGSTNYADSVKGRFTISRDNAKNTVYLQMNSLKPEDTAVYYCAAEFAVSFYWSWLGQDYNFWGLGTQVTVSS”, the “polyreactivity (PSR sort gate)” value is listed as “high polyreactivity”.

Consider “QVQLVESGGGLVQAGGSLPLSCAASGITFHRYAMGWDRQAPGKERELVAAMSRGASTNYADSVKGRFTISRDNAKNTVYLQMNSLKPEDTAVYYCAARTIGWYSGSRFDYWGQCTQVTVSS”, for which the “polyreactivity (PSR sort gate)” value is reported as “high polyreactivity”.

Turning to “QVQLQESGGGLMQAGGSQRLSCAASGSISSYSDMGWYRQAPGKEREFVAGIGYGTTTNYADSVKGRFTTSRDNAKNTVYLQMISMKPEDTAVYYCAAYQGNGYEFYYWGQGTQVTVRS”, the “polyreactivity (PSR sort gate)” value is “low polyreactivity”.

As to “QVQLQESGGGLVHAGGSLRLSCAASGTISFINMMGWYRQAAGRERELVASINFGANTNYADSVKGRFTISRDNAKNTVYLQMNSLKPEDTAVYYCAVYDFDAYTLYYWGQGTLVTVSS”, the “polyreactivity (PSR sort gate)” value is listed as “high polyreactivity”.

On to “QVQLVESGGGLVQAGGSLRLSCAASGRTFGKYAMGWYRQAPGKDRELVATISRSGGSTYYAVSVKGRFTISRDNAKNTVYLQMNSLKPEDTAVYYCNAVTSRYIWPPVVDRYHYWGQGTQVTVSS”, for which the “polyreactivity (PSR sort gate)” value is recorded as “high polyreactivity”.

On to “QVQLVESGGGLVQAGGSLRLSCAASGSIFRRYAMGWYRQPPGKERELVASISSRGTRTYYADSVKGRFTISRDNAKNTVYLQMNSLKPEDTAVYYCAASYYTPYDYWGQGTQVTVSS”, for which the “polyreactivity (PSR sort gate)” value is “high polyreactivity”.

Regarding “QVQLVESGGGLVQAGGSLRLSCAASGSTFRKYAMGWYRQAPGTEREFVAAITWSTGTTYYADSVKGRFTISRDNAKNTVYLQMNSLKPEDTAVYYCAADSQPPHELYESIEHESWGQGTQVTVSS”, the “polyreactivity (PSR sort gate)” value is “low polyreactivity”.

With “QVQLVESGGGLVQAGGTLRLSCAASGSTFYRYAMGWYRTAPGKERELVATITRSGGSTYYADSVKGRFTISRDNAKNTVYLQMNSLKPEDTAVYYCAARGWYKSDYWGQGTQVTVSS”, the “polyreactivity (PSR sort gate)” value is “low polyreactivity”.

Turning to “QVQLVESGGGLVQAGGSLRLSCAASGSIFGRYTMGWYRQAPGKERELVAAINRSGGSTSYADSVKGRFTISRDNAKNTVYLQMNSLKPEDTAVYYCNRARSVPQFYGTYGFGYDYWGQGTQVTVSS”, the “polyreactivity (PSR sort gate)” value was “low polyreactivity”.

As for “QVQLVESRGGLVQAGGSLRLSCPASGSIFPDNAMGWYRQAPGKERELDAAITRGGSTYYADSEKGRFTISRDNAKNTVYLQMNSLKPEDTAVYYCAVVRYYVSMDNWGQGTQVTVSS”, the “polyreactivity (PSR sort gate)” value is on record as “high polyreactivity”.

With “QVQLVESGGGLVQAGGSLRLSCAASGSTFYRYTMGWYRQAPGKERELVAAITRSSGSTYYADSVKGRFTISRDNEKNTVYLQMNCLKPEDTAVYYCAAYVGGDRGFDYWGQGTQVTVSS”, the “polyreactivity (PSR sort gate)” value is given as “high polyreactivity”.

As for “QVQLLESGGGLVQVGGSLRLSCAASGTIFIYGFLGWNRQAPGKERELVASINLGGITNYADSEKGRFTISRDNAINTGFLQMISLKPEDTAVYYCAAYVVTCQNYGYWGHGTQVTVSS”, the “polyreactivity (PSR sort gate)” value is “low polyreactivity”.

As for “QVQLVESGGGLVQAGGSLGLSCAASGFTFTYYAMGWYRQAPGKERELVASISWRGGSTYADSVKGRFTISRDNAQNTVYLQMNSLTPEDTAVYYCAADGYSYGNYIYDYWGQGTQVTVSS”, the “polyreactivity (PSR sort gate)” value was “low polyreactivity”.

With “QVQLVESGGGLVQAGGSLRLSCAASGIIFAYNAMGWYRQAPGKERELVAAISSGGRTNYADSVKGRFTISRDNAKNTVYLQMNSLKPEDTAVYYCAARPRYYWLGLKIYGYDYWGHGTQVTVSS”, the “polyreactivity (PSR sort gate)” value is recorded as “high polyreactivity”.

“QVQLVESGGGLVQAGVSLRLSCDASGSTFHYYVMGSSRQAPGKEREFVAAISRSGGNPYYADSVKGRFTISRDNAKNTVYLQMNSLKPDDTAVYYCAAALSAYVKWDYYYCGQGTQVTVSS”: the “polyreactivity (PSR sort gate)” value is reported as “low polyreactivity”.

Turning to “QVQLVESGGGLVQAGGSLRLSCAASGRTFYWYVMGWYRQAPGKERELVATITSGGSSNYADSVKGRFTISRDNAKNTVYLQRNSLKPEDTAVYYCNRDRLVRYEAEYDYWGQGTQVTVSS”, the “polyreactivity (PSR sort gate)” value is listed as “low polyreactivity”.

Regarding “QVQLVESGGGLVQAGGSLRLSCAASGRTFSTNVMGWYRQAPGKERELVAAITTSSSRTYYADSVKGRFTISRDNAKNTVYLQMNSLKPEDTAVYYCAARIHGSWSFDYWGQCTQVTVSS”, the “polyreactivity (PSR sort gate)” value is recorded as “low polyreactivity”.

On to “QVQLVESGGGLVQAGGSLRISCAASGRIFGENAMGWYRQAPGKERELVAAIRFSSGSTYYADSVKGRFTISRDNAKNTVYLQMNSLKPEDTAVYYCNADGWYALYEWLAVSGYYWGQGTQVTVSS”, for which the “polyreactivity (PSR sort gate)” value is “low polyreactivity”.

Take “QVQLVESGGGLVQAGGSLRLSCAASGITFKYYAMGWYRQAPGKERELVAAIRGGRTYYADSVKGRFTISRDNAKNTVYLQMNSLKPEDTAVYYCNARYYQSGIKYNYWGQGTQVTVSS”: the “polyreactivity (PSR sort gate)” value is “high polyreactivity”.

On to “QDQLVESGGGLVQAGGSLRLSCAASGRIFAPNAMGWYRQAPGKERELVAAITYSGTSTYADSVKGRFTISRDNAKNTVYLQMNSLKPEDTAVYYCAAEGSGVYYHSYDYWGQGTQVTVSS”, for which the “polyreactivity (PSR sort gate)” value is given as “low polyreactivity”.

Take “QVQLVESGGGLVQAGGSLRLSCAASGSLYFAYAMGWYRQAPGKEREFVAAISASGGSTSYADSVKGRFTISRDNAKNTVYLQMNSLKPEDTAVYYCATEHRVTTYDYWGQGTQVTVSS”: the “polyreactivity (PSR sort gate)” value is “low polyreactivity”.

“QVQLVESGGGLVQAGGSLRLSCAASGIIFTTYVMGWYRHAPGTESELVAAISRGGRTYYADSVKGRFTLSRDNAKHTVYLQMNSLKPEDTAVYYCARVAYKGYGEDDYWGQGTQVTVSS”: the “polyreactivity (PSR sort gate)” value is recorded as “high polyreactivity”.

On to “QVQLVESGGGLVQAGGSLRLSCAASGYTFGFYALGWYRQAPGKERELVAAITVSGGSTYYADSVKGRFTISRDNAKNTVYLQMNSLKPEDTAVYYCAAEVWFYSTFLYDYWGQGTQVTVSS”, for which the “polyreactivity (PSR sort gate)” value is recorded as “high polyreactivity”.

Take “QVQLVESGGGLVQAGGSLRLSCAASGSTFRPYAMGWYREAPGKERELVAAITSTGGSTYYADSVKGRFTISRDNAKNSVSLQMNSLKPDDTAVYYCAAPLVRYAGPYDYWGQGTQVTVSS”: the “polyreactivity (PSR sort gate)” value is given as “low polyreactivity”.

For “QVQLVESGGGLVQAGGSLRLSFAASGSIFASNAMGWYRQAPGKERELVAAISKRGGSTYYVDSVKGRFTISRDNAKNTVYFQMNSLKPEDTAVYYCNTYIRQDAPGQYDYWGQGTQVTVSS”, the “polyreactivity (PSR sort gate)” value is “high polyreactivity”.

Regarding “QVQLVESGGGLVQAGGSLRLTCAASGFTFRRYAMGCYRKAPGKERLLVAAISYSGGITYYADSVKGRFTISRDNAKNTVYLHMNSLKAEDTAVYYCAADYFAPYKTYDYWGQGTQVTVSS”, the “polyreactivity (PSR sort gate)” value is reported as “high polyreactivity”.

Regarding “QVQLVESGGGLVQAGGSLRLSCAASGIIFTDYAMGWDRQAPGKERELVAAISSGGGSTYYADSVKGRFTISRDNAKNTVYIQLNSQKPEDTAVYYCAAEGYLISGACDYLYDYYWGQGTQVTVSS”, the “polyreactivity (PSR sort gate)” value is given as “high polyreactivity”.

With “QVQLVESGGGLVQAGGSLRLSCAASGRIFVGNTMGWYRQAPGKERELVAAITYRGGSTYYADSVKGRFTISRDNAKNTVYLQMNSLKPEDTAVYYCATAGYWGGDYWGQGTQVNVSS”, the “polyreactivity (PSR sort gate)” value is recorded as “low polyreactivity”.

As to “QVQLVESGGGLVQAGGSLRLSCAASGSIFGSNAMGWYRQAPGKERELVAANSKSGGSTYYADSVKGRFTISRDNAKITVYLQMNSLKPEDTAVYYCNARWWVVTFYGRYEGDYWGQGTQVTVSS”, the “polyreactivity (PSR sort gate)” value was “low polyreactivity”.
